Experimental findings from patent US20060171935A1, “Protecting cell therapy for neurological disorders including Parkinson's disease” (priority 2005, published 2006) are described below.

Series [1] has as its system CAD murine neuroblastoma cells. As to the kind of experiment: Q333P NFL intracytoplasmic inclusions in CAD cells. The note with it: co-overexpression with Q333P mutant NFL. It counts as cell-based. How it is done: In a separate set of experiments, the inventors assayed the ability of DJ-1 to inhibit aggregation of a second substrate, neurofilament light subunit (NFL). Overexpression of a mutant form of human NFL, Q333P, by transient transfection of CAD murine neuroblastoma cells, leads to the accumulation of intracytoplasmic inclusions (Perez-Olle et al. 2002).
(§1) Quantification of CAD cell aggregates was performed using a Zeiss LSM Pascal confocal microscope (Zeiss, Oberkochen, Germany) with a 20× long working distance lens. Images were imported to NIH Image J for analysis. Images from tenrandomly selected fields in each of three wells were quantified for each condition. Cells containing at least one intracytoplasmic aggregate, independent of size or number per cell, were scored as positive for aggregates. This number was divided by the number of transfected cells per field, determined by GFP fluorescence.

A further series has as its system DJ-1-deficient ES cells. As to the kind of experiment: Rescue of DJ-1-deficient ES cells from H2O2, MTT viability. It counts as cell-based, murine. Particulars: transient transfection, 10 μM H2O2 for 15 h. The protocol: (A) DJ-1 cysteine-to-alanine mutants C106A, C53A, and a triple mutant that harbors mutations at all three cysteines in DJ-1 (C106A/C53A/C46A), as well as L166P, were tested for in vitro chaperone activity by CS aggregation suppression assay. (B) Self-association of DJ-1 cysteine mutants. Murine neuroblastoma CAD cells were transiently cotransfected with Flag-tagged human DJ-1 vectors (either WT or mutant) along with WT YFP-tagged human DJ-1. Lysates were immunoprecipitated with anti-Flag antibodies and probed by Western blotting with an antibody specific for human DJ-1. […] Lysates represent 20% of the input for the immunoprecipitate; Flag-DJ-1 migrates at 22 kDa, and YFP-DJ-1 migrates at 50 kDa. (C) DJ-1-deficient ES cells were transiently transfected with vector alone, WT DJ-1, or DJ-1 cysteine mutants, and exposed to 10 μM H2O2 for 15 h followed by MTT assay. The viability of the cells in the absence of drug treatment was not altered by the expression of WT or mutant DJ-1). Data are shown as the mean±SEM and were analyzed by ANOVA with Fisher's post-hoc test. *p<0.05.
To confirm that altered sensitivity to oxidative stress is a consequence of the loss of DJ-1, ‘rescue’ experiments by overexpressing wild-type or mutant human DJ-1 in ‘knockout’ ES cells were performed. Plasmids encoding human wild-type DJ-1, PD-associated L166P mutant DJ-1, or vector alone, were transiently transfected into DJ-1 deficient clones, and these were subsequently assayed for sensitivity to H2O2 using the MTT viability assay.
In Vivo Assays. ES cells plated in 96-well format (2.3×10^4 cells/well) were treated for 15 hours with H2O2 in ES media deficient in β-mercaptoethanol (Abeliovich et al. 2000). Cell viability (as a percent of untreated control) was determined by MTT assay in triplicate (Fezoui et al. 2000). Annexin V/Propidium Iodide (Molecular probes) staining was performed per the manufacturer's instructions. For dihydrorhodamine-123 staining (DHR, Molecular probes) (Walrand et al. 2003), cells were preincubated for 30 min with DHR (5 μM), washed with PBS, then treated with H2O2 in ES media deficient in β-mercaptoethanol for 15 min at 37° C. The FACS analysis was performed using a FACSTAR sorter (Becton Dickinson). Dopamine uptake assay was performed essentially as described (Farrer et al. 1998). Reported values represent specific uptake from which non-specific uptake, determined in the presence of mazindol, was subtracted, and normalized for protein content (BCA kit, Pierce).

Series [2] relates to CAD murine neuroblastoma cells. The series can be described thus: αSyn intracytoplasmic inclusions in CAD cells. The class given is cell-based. Particulars: co-overexpression with αSyn. The protocol:
To further evaluate αSyn aggregation, the inventors performed immunohistochemical analyses of CAD cells transfected with αSyn along with DJ-1 or control vector (FIG. 25). Overexpression of αSyn in neuroblastoma cells induces the formation of visible cytoplasmic aggregates (Lee and Lee 2002) (FIGS. 25J-25L).
as §1

A further series has as its target T1, citrate synthase (CS) (Sus scrofa, UniProt P00889).
T1 construct: purchased Sigma
T1 sequence (P00889 28-464): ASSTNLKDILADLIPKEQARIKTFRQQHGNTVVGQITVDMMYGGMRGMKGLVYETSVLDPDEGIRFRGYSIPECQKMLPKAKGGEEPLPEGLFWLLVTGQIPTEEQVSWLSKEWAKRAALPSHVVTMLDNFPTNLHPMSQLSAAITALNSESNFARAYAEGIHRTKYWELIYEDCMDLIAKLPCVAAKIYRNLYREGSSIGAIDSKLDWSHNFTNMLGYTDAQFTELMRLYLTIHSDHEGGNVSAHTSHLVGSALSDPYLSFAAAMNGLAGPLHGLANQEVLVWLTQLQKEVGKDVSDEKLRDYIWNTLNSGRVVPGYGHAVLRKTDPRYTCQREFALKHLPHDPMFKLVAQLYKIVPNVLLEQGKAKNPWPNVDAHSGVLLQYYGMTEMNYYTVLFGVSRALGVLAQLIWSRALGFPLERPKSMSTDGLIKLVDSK
The series can be described thus: Suppression of heat-induced aggregation of citrate synthase (chaperone assay). The class given is biochemical. Particulars: 0.8 μM CS, 43° C. How it is done:
To test the redox regulation of DJ-1, the inventors assayed chaperone activity in the CS aggregation assay in the presence or absence of the reducing agent DTT. […] (FIG. 22D). […] To further test whether redox regulation might govern DJ-1 chaperone activity, reactivation studies using reduced DJ-1 were performed. DTT-reduced DJ-1 was incubated with H2O2 (10 mM in aggregation buffer for 10 min at 4° C. followed by dialysis against aggregation buffer for 2 h), and subsequently chaperone activity was measured in the CS thermal aggregation assay. […] This was not an indirect effect of residual H2O2 on CS aggregation, as H2O2 treatment of CS increased aggregation (unpublished data).
CS aggregation was performed in 40 mM HEPES (pH 7.8), 20 mM potassium hydroxinde, 50 mM potassium chloride, and 10 mM ammonium sulfate, and monitored in a thermostat-controlled fluorescence spectrophotometer with excitation and emission wavelengths at 500 nm and slit widths at 2.5 nm. Insulin aggregation was performed as described (Giasson et al. 2000). CS, insulin, RNase A, and GST were obtained from Sigma; human Hsp27 was obtained from Stressgen.

Another series is described as follows: CD thermal denaturation. The note with it: CD at 222 nm, range studied 0-90° C. The class given is physicochemical. The source says: (G) Redox regulation is unaffected by the C106A mutation.
Molecular chaperones typically display marked stability to thermal stress (Sastry et al. 2002). […] (FIG. 28).

Series [3] relates to Undifferentiated ES cells. As to the kind of experiment: Q333P mutant NFL toxicity, MTT reduction, undifferentiated ES cells. It counts as cell-based. The note with it: 72 h. How it is done: FIG. 30 depicts the additional studies of DJ-1 mutations. […] Cells from FIG. 4M were quantified via ToPro3 nuclear staining and are expressed as number of cells per field from ten independent fields in each of three wells. Data are shown as the mean±SEM and were analyzed by ANOVA with Fisher's post-hoc test. *p<0. […] GFP positive transfected cells from FIG. 5A-5L were quantified and are expressed as number of transfected cells per field from ten independent fields in each of three wells. Data are shown as the mean±SEM and were analyzed by ANOVA with Fisher's post-hoc test. *p<0. (C) Overexpression of WT DJ-1, but not L166P mutant DJ-1, rescues cells from Q333P mutant NFL toxicity. HeLa cells were transfected with Q333P mutant NFL along with WT human DJ-1, L166P mutant DJ-1, or vector control. After 72 h, cells were assayed by MTT reduction assay (which detects reduction of 3-(4,5-dimethylthiazol-2-yl)-2,5-diphenyltetrazolium bromide by metabolic enzymes) (Martinat et al. 2004). Data are shown as the mean±SEM and were analyzed by ANOVA with Fisher's post-hoc test. *p<0. […] Undifferentiated ES cells were transfected with Q333P mutant NFL along with WT human DJ-1, C53A mutant DJ-1, or vector control. After 72 h, cells were assayed by MTT reduction assay (Martinat et al. 2004). Data are shown as the mean±SEM and were analyzed by ANOVA with Fisher's post-hoc test. *p<0. […]

In the next series the test system is DY-1 ES cells. As to the kind of experiment: Candidate soluble factors in DY-1 ES cell differentiation to dopamine neurons. Particulars: added at stages 4-5 of differentiation. The class given is cell-based, murine. How it is done:
The availability of marked ES-derived ‘late’ dopamine neurons should facilitate the analysis of candidate soluble and cell-associated factors in the differentiation process. […] Briefly, DY-1 ES cells were differentiated using EB or SDIA and candidate factors were added to the standard differentiation protocol at stages 4-5 of differentiation (Lee et al., 2000).

Where a chain is given by its changes, count along the chain named. Numbers in names are those of the source.

B1: L166P DJ-1: Parkinsonism-associated L166P mutant of human DJ-1, recombinant or plasmid-expressed (protein, UniProt Q99497 1-189, looked up, variant L166P)
chain: MASKRALVILAKGAEEMETVIPVDVMRRAGIKVTVAGLAGKDPVQCSRDVVICPDASLEDAKKEGPYDVVVLPGGNLGAQNLSESAAVKEILKEQENRKGLIAAICAGPTALLAHEIGFGSKVTTHPLAKDKMMNGGHYTYSENRVEKDGLILTSRGPGTSFEFAPAIVEALNGKEVAAQVKAPLVLKD
B1: the “accumulation of NFL inclusions” value in series [1] is given as “failed to inhibit”. The “viability of DJ-1 knockout cells in the presence of H2O2” value with DJ-1-deficient ES cells is given as “did not significantly alter the viability”. The “number of cells containing αSyn aggregates” value in series [2] is reported as “fails to do so”. Besides, in the series with citrate synthase (CS), the “suppression of heat-induced aggregation of CS (chaperone activity)” value is “abrogated chaperone activity”. For the same molecule, in “CD thermal denaturation”, the thermal unfolding transition entry is reported as “does not exhibit a thermal unfolding transition”.

B2: C53A: DJ-1 cysteine-to-alanine mutant at cysteine 53 (protein, UniProt Q99497 1-189, looked up, variant C53A)
chain: B1 chain with C53A, P166L
With B2, the “viability of DJ-1 knockout cells in the presence of H2O2” value with DJ-1-deficient ES cells is reported as “failed to protect”. In addition, in series [3], the “rescue from Q333P mutant NFL toxicity” value was “unable to rescue”. Besides, the “suppression of heat-induced aggregation of CS (chaperone activity)” value in the series with citrate synthase (CS) is “completely abrogates chaperone activity”.

B3: Noggin: soluble Noggin, inhibits BMP signaling (protein, UniProt Q13253 28-232, looked up)
Noggin: QHYLHIRPAPSDNLPLVDLIEHPDPIFDPKEKDLNETLLRSLLGGHYDPGFMATSPPEDRPGGGGGAAGGAEDLAELDQLLRQRPSGAMPSEIKGLEFSEGLAQGKKQRLSKKLRRKLQMWLWSQTFCPVLYAWNDLGSRFWPRYVKVGSCFSKRSCSVPEGMVCKPSKSVHLTVLRWRCQRRGGQRCGWIPIQYPIISECKCSC
On to B3, for which, in the series on DY-1 ES cells, the “generation of late dopamine neurons (eYFP fluorescence, DAT immunoreactivity, late DN markers)” value is reported as “did not detect any effect”.
